Results on one protein are retold here after paper PMC2956116 (Structure (London, England : 1993), 2010).

This data set deals with the molecule itself. In words: cryo-EM structure.

As usually defined, the stoichiometry N is the number of molecules, sites or subunits per partner or assembly.

B1: Staphylococcus aureus pyruvate carboxylase (enzyme, S. aureus, UniProt A0A0H3JRU9 1-1150, looked up)
chain: MKQIKKLLVANRGEIAIRIFRAAAELDISTVAIYSNEDKSSLHRYKADESYLVGSDLGPAESYLNIERIIDVAKQANVDAIHPGYGFLSENEQFARRCAEEGIKFIGPHLEHLDMFGDKVKARTTAIKADLPVIPGTDGPIKSYELAKEFAEEAGFPLMIKATSGGGGKGMRIVREESELEDAFHRAKSEAEKSFGNSEVYIERYIDNPKHIEVQVIGDEHGNIVHLFERDCSVQRRHQKVVEVAPSVGLSPTLRQRICDAAIQLMENIKYVNAGTVEFLVSGDEFFFIEVNPRVQVEHTITEMVTGIDIVKTQILVAAGADLFGEEINMPQQKDITTLGYAIQCRITTEDPLNDFMPDTGTIIAYRSSGGFGVRLDAGDGFQGAEISPYYDSLLVKLSTHAISFKQAEEKMVRSLREMRIRGVKTNIPFLINVMKNKKFTSGDYTTKFIEETPELFDIQPSLDRGTKTLEYIGNVTINGFPNVEKRPKPDYELASIPTVSSSKIASFSGTKQLLDEVGPKGVAEWVKKQDDVLLTDTTFRDAHQSLLATRVRTKDMINIASKTADVFKDGFSLEMWGGATFDVAYNFLKENPWERLERLRKAIPNVLFQMLLRASNAVGYKNYPDNVIHKFVQESAKAGIDVFRIFDSLNWVDQMKVANEAVQEAGKISEGTICYTGDILNPERSNIYTLEYYVKLAKELEREGFHILAIKDMAGLLKPKAAYELIGELKSAVDLPIHLHTHDTSGNGLLTYKQAIDAGVDIIDTAVASMSGLTSQPSANSLYYALNGFPRHLRTDIEGMESLSHYWSTVRTYYSDFESDIKSPNTEIYQHEMPGGQYSNLSQQAKSLGLGERFDEVKDMYRRVNFLFGDIVKVTPSSKVVGDMALYMVQNDLDEQSVITDGYKLDFPESVVSFFKGEIGQPVNGFNKDLQAVILKGQEALTARPGEYLEPVDFEKVRELLEEEQQGPVTEQDIISYVLYPKVYEQYIQTRNQYGNLSLLDTPTFFFGMRNGETVEIEIDKGKRLIIKLETISEPDENGNRTIYYAMNGQARRIYIKDENVHTNANVKPKADKSNPSHIGAQMPGSVTEVKVSVGETVKANQPLLITEAMKMETTIQAPFDGVIKQVTVNNGDTIATGDLLIEIEKATD
modifications: biotinylated Lys1144
On to B1, for which the “stoichiometry N” value was 4.
